Residue numbers refer to the chain shown, from its start. Numbers in names are those of the source.
B1: plastocyanin (PC) S49D, recombinant phosphomimetic variant (natural protein)
chain: DATVKLGADSGALEFVPKTLTIKSGETVNFVNNAGFPHNIVFDEDAIPDGVNADAISRDDYLNAPGETYSVKLTAAGEYGYYCEPHQGAGMVGKIIVQ
B2: plastocyanin (PC) S49K, recombinant (natural protein, C. reinhardtii)
chain: B1 chain with D49K
notes: plastocyanin of C. reinhardtii, UniProt P18068, with a point mutation S49K that adds a trypsin site; numbers count on: the mature protein (D48 of P18068 = D1); S49 is S96 in P18068 by the printed offset; Made from the WT Pet17b-PETE plasmid; the methods list codons only for S-to-A, S-to-E and S-to-D; also called mutated S49K PC; source: E. coli, recombinant (as the wild type PC)

What was measured:
[1] = biological target: cytochrome f (Cytf, PetA), His-tagged, in the isolated cytochrome b6f complex (C. reinhardtii) (UniProt P23577)
[2] = biological target: T1, cytochrome f (Cytf, PetA), His-tagged, in the isolated cytochrome b6f complex (C. reinhardtii, UniProt P23577 32-317); experiment: cross-linking; PC (100 µM) preactivated with 5 mM EDC and 10 mM NHS, pH 6.5 (MOPS), 20 min at room temperature; 5 mM ferricyanide added and cross-linker removed; added to isolated Cytb6f (2.7 µM) pre-reduced with 5 mM ascorbate; HEPES 30 mM pH 7.5, MgCl2, tPCCαM; 45 min at room temperature; read by SDS-PAGE (Coomassie, anti-Cytf blot) and by trypsin digestion with LC-MS/MS (MaxQuant and xiSEARCH); settings: both partners purified
T1 construct: cytochrome f (PetA) of C. reinhardtii, UniProt P23577; numbers count on: the mature protein (Y32 of P23577 = Y1); Stood in every assay as a subunit of the whole isolated Cytb6f complex, not as an isolated protein; Carries heme f; also called Cytb6f (as the subunit cross-linked); source: C. reinhardtii strain expressing His-tagged PetA; Cytb6f complex purified (tPCCαM solubilisation, NiNTA, …)
T1 sequence (P23577 32-317, one chain of several): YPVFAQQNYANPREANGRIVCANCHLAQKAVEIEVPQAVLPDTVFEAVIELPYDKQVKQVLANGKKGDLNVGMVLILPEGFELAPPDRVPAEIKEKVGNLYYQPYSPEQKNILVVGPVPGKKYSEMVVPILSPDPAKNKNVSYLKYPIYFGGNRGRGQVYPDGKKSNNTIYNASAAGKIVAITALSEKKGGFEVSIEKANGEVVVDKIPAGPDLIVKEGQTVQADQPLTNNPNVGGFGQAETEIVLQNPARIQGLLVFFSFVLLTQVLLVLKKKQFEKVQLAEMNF

cytochrome f (Cytf, PetA), His-tagged, in the isolated cytochrome b6f complex (C. reinhardtii), sequence (P23577 32-317, one chain of several): as above

Binder | half-time of Cytf oxidation in the light (absorbance at 554 nm), isolated Cytb6f and PSI, 1 to 3 µM PC, 5 µM FDX [1] | binding result [2]
B1 | 120 ms | –
B2 | – | binds
